Results reported in patent EP4610267A1, “CYCLIC DINUCLEOTIDES AND CONJUGATES THEREOF WITH ANTIBODIES” (priority 2024, dated 2025).

Assays:
[1] = In vitro mouse plasma stability of antibody-CDN conjugates (payload CDN 2.2 retention on mAb by LC-MS); format: in vitro ADME
Description: (§2) In vitro plasma stability of ADC was performed by spiking mouse plasma with antibody-CDN conjugates (final concentration 100µg/mL). Samples were incubated in a 37°C incubator with 5% CO2, aliquots were taken at various time points and stored frozen for analysis.
(§3) Briefly, 25µL of plasma samples were incubated with biotinylated anti-human Fcy fragment mAb (final concetration 0.18mg/mL, Jackson ImmunoResearch cat # 109-065-098) for 30 min and then mixed with 30 µL Dynabead MyOne Streptavidin T1 (Invitrogen cat # 65604D) and 70 µL PBS. After 1 hour incubation, the beads were separated on a magnet, washed with PBS containing 0.05% Tween20, PBS and water, and ADCs were eluted in the presence of 0.2% of formic acid in water. Eluate was neutralized by adding ammonium formate (400mM final concentration) and ADCs were reduced with TCEP (40mM final concentration) for 30 minutes at room temperature. Samples were then measured by LC-MS and analyzed for compound-to-antibody ratio as described above.

[2] = Compound-to-antibody ratio (DAR) of antibody CDN conjugates by LC-MS
Description: Antibody CDN-conjugates were analyzed to determine the extent of conjugation. A compound-to-antibody ratio was extrapolated from LC-MS data for reduced samples. LC-MS allows quantitation of the average number of molecules of linker-payload attached to an antibody in a conjugate sample. Mass spectral data enables identification of the component species in the mixture, e.g., LC, LC+1, LC+2, HC, HC+1, HC+2, etc. From the average loading on the LC and HC chains, the average compound to antibody ratio can be calculated for an antibody conjugate. A compound-to-antibody ratio for a given conjugate sample represents the average number of compound (linker-payload) molecules attached to a tetrameric antibody containing two light chains and two heavy chains. The samples were reduced with 40 mM TCEP or 5.5 mM DTT, injected onto a MassPREP Micro Desalting column (20 µm, 5-mm by 2.1-mm ID, Waters) equilibrated in 0.1% formic acid (FA) in H2O and eluted by a fast gradient (4min) to 0.1% FA in acetonitrile. The separation was carried out by AQUITY UPLC I-Class system (Waters) and was on-line coupled to Mass Spectrometer Synapt G2 (Waters) to acquire mass spectra using electrospray ionization in positive mode. The TOF mass range was set from m/z 500 to 4000. The raw spectrum was subtracted and deconvoluted (MaxEnt 1, Waters) to produce the final spectrum. Conjugates were profiled using analytical size-exclusion chromatography on Superdex 200 equilibrated in PBS pH7.4; aggregation was analyzed based on analytical size exclusion chromatography.

STING Q = assay: 293T STING digitonin reporter assay (Q haplotype); format: cell-based, human; conditions: digitonin permeabilised 293T reporter cells
Description: (§1) Digitonin Assay with 293T Reporter Cells. The generation of 293T reporter cells stably expressing different STING protein haplotypes (WT, HAQ, REF, AQ, or Q) was described previously (Novotna et al, J. Med. Chem. 2019,62, 10676). The cells were seeded at a density of 250 000 cells per cm^2 into 96 well white poly(D-lysine) coated plates in 100 µL of DMEM with high glucose supplemented with 10% heat inactivated FBS. Next day, the medium was removed, and compounds were added in 3-fold serial dilutions in a digitonin buffer containing 50 mM HEPES (pH 7.0), 100 mM KCl, 3 mM MgClz, 0.1 mM DTT, 85 mM sucrose, 0.2% (w/w) BSA, 1 mM ATP, 0.1 mM GTP, and 10 µg/mL digitonin A. After 30 min incubation at 37 °C with 5% CO2, the digitonin buffer was removed, cells were washed once with 100 µL of the cultivation medium, and 100 µL of fresh medium was added to each well. The plates with cells were further incubated for 5 h at 37 °C with 5% CO2. Thereafter, 50 µL of the medium was removed, and 30 µL of Bright-Glo Luciferase Assay System reagent was added to each well. […] Nonlinear regression curve fit with standard slope was used for EC50 value calculations. The EC50 value represents CDN concentration that gives half-maximal response of firefly luciferase in the 293T reporter assay.

STING REF = biological target: T1, STING REF (Homo sapiens, UniProt Q86WV6); assay: 293T STING digitonin reporter assay (REF haplotype); format: cell-based; conditions: digitonin permeabilised 293T reporter cells
T1 construct: expressed in transfected cells
T1 sequence (Q86WV6 whole entry): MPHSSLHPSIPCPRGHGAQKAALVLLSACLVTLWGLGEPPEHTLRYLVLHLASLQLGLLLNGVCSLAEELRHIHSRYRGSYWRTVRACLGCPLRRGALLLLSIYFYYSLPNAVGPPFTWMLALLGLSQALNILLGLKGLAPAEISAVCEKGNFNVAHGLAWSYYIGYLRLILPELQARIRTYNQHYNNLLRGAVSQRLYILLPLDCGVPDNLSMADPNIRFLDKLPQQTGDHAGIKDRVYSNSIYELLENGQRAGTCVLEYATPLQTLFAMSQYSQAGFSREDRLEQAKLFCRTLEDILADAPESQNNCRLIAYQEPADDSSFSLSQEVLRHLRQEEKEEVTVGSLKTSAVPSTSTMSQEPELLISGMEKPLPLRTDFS
Description: as §1

STING AQ = biological target: T2, STING AQ (Homo sapiens, UniProt Q86WV6, G230A/H232R/R293Q); assay: 293T STING digitonin reporter assay (AQ haplotype); format: cell-based; conditions: digitonin permeabilised 293T reporter cells
T2 construct: expressed in transfected cells
T2 sequence (Q86WV6 whole entry G230A/H232R/R293Q): as the sequence (Q86WV6 whole entry) above, with G230A, H232R, R293Q counted along it
Description: as §1

STING HAQ = biological target: T3, STING HAQ (Homo sapiens, UniProt Q86WV6, G230A/H232R/R293Q/R71H); assay: 293T STING digitonin reporter assay (HAQ haplotype); format: cell-based; conditions: digitonin permeabilised 293T reporter cells
T3 construct: expressed in transfected cells
T3 sequence (Q86WV6 whole entry R71H/G230A/H232R/R293Q): as the sequence (Q86WV6 whole entry) above, with R71H, G230A, H232R, R293Q counted along it
Description: as §1

STING WT = biological target: T4, STING WT (Homo sapiens, UniProt Q86WV6, H232R); assay: 293T STING digitonin reporter assay (WT haplotype); format: cell-based; conditions: digitonin permeabilised 293T reporter cells
T4 construct: expressed in transfected cells
T4 sequence (Q86WV6 whole entry H232R): as the sequence (Q86WV6 whole entry) above, with H232R counted along it
Description: as §1

[3] = In vitro mouse plasma stability of antibody-CDN conjugates (payload CDN 2.2 retention on mAb by LC-MS); format: in vitro ADME; conditions: retention of CDN 2.2 on mAb
Description: as §2, §3

Her2 = Her2 (UniProt P04626); assay: cell-based or functional assay
TROP2 = biological target: T5, TROP2 (UniProt P09758 27-323, limits assumed); assay: cell-based or functional assay
T5 sequence (looked up): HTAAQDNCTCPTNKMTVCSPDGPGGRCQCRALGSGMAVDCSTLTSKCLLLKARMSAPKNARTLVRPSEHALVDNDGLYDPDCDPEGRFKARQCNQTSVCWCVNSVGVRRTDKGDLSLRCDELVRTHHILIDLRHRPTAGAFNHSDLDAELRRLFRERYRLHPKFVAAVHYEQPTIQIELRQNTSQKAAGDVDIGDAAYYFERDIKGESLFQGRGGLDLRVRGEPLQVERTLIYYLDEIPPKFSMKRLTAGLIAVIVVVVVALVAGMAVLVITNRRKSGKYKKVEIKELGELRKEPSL

[4] = compound conjugated to anti Her2 mA2 via interchain cysteines
[5] = monoclonal antibody: anti TROP2 mA5, 37°C

Molecule: CC(C)[C@H](NC(=O)CN1C(=O)C=CC1=O)C(=O)N[C@@H](CCCNC(N)=O)C(=O)Nc1ccc(COC(=O)N(C)CCOC(=O)Nc2ncnc3c2ncn3[C@@H]2O[C@H]3COP(=O)(S)O[C@@H]4[C@H](F)[C@@H](COP(=O)(S)OC[C@H]3[C@H]2F)O[C@H]4n2cnc3c(=O)[nH]cnc32)cc1 (stereo partly drawn) [Compound 3.3, 4-((S)-2-((S)-2-(2-(2,5-dioxo-2,5-dihydro-1H-pyrrol-1-yl)acetamido)-3-methylbutanamido)-5-ureidopentanamido)benzyl (2-(((9-((6R,8R,9S,13aR,15R,16R,16aR,17R)-16,17-difluoro-3,11-dimercapto-3,11-dioxido-8-(6-oxo-1,6-dihydro-9H-purin-9-yl)decahydro-6,9-methanofuro[3,2-m][1,3,6,9,12]pentaoxa[2,10]diphosphacyclopentadecin-15-yl)-9H-purin-6-yl)carbamoyl)oxy)ethyl)(methyl)carbamate]
- attachment to anti Her2 mAb2 in mouse plasma ([1]; attached to anti Her2 mAb2 via interchain cysteines (Fig. 3)): stable over period up to 15 days
- retention on anti-TROP2 mAb5 ([1]; attached to engineered light chain V110C and heavy chain S375C of mAb5 (Fig. 4)): excellent retention

Molecule: (2S)-N-((2S)-1-((4-((((6R,8R,9S,13aR,15R,16R,16aR,17R)-15-(6-amino-9H-purin-9-yl)-16,17-difluoro-3-mercapto-3,11-dioxido-8-(6-oxo-1,6-dihydro-9H-purin-9-yl)decahydro-6,9-methanofuro[3,2-m][1,3,6,9,12]pentaoxa[2,10]diphosphacyclopentadecin-11-yl)thio)methyl)phenyl)amino)-1-oxopropan-2-yl)-2-(2-(2,5-dioxo-2,5-dihydro-1H-pyrrol-1-yl)acetamido)-3-methylbutanamide [Compound 3.19, reference compound]
- Drug Antibody ratio (DAR) [2, 4]: 2.5

Molecule: Nc1ncnc2c1ncn2[C@@H]1O[C@@H]2OCP(=O)(S)O[C@@H]3[C@H](F)[C@@H](COP(=O)(S)OC[C@H]2[C@H]1F)O[C@H]3n1cnc2c(=O)[nH]cnc21 (single isomer, unassigned) [Compound 2.1]
- EC50 (STING Q): 350 nM
- EC50 (STING REF): 140 nM
- EC50 (STING AQ): 180 nM
- EC50 (STING HAQ): 180 nM
- EC50 (STING WT): 30 nM

Molecule: 4-((S)-2-((S)-2-(2-(2,5-dioxo-2,5-dihydro-1H-pyrrol-1-yl)acetamido)-3-methylbutanamido)-5-ureidopentanamido)benzyl (2-(((9-((6R,8R,9S,13aR,15R,16R,16aR,17R)-16,17-difluoro-3,11-dimercapto-3,11-dioxido-8-(6-oxo-1,6-dihydro-9H-purin-9-yl)decahydro-6,9-methanofuro[3,2-m][1,3,6,9,12]pentaoxa[2,10]diphosphacyclopentadecin-15-yl)-9H-purin-6-yl)carbamoyl)oxy)ethyl)(methyl)carbamate [Compound 3.3]
- Drug Antibody ratio (DAR) [2, 4]: 3.7
- Drug Antibody ratio (DAR) ([2]; compound conjugated to isotype mAb (Table 18)): 4.0
- Mouse plasma T ½ ([3]; monoclonal antibody: anti Her2 mA2, 37°C): >15 days
- Mouse plasma T ½ [3, 5]: >15 days

Molecule: 4-((S)-2-((S)-2-(2-(2,5-dioxo-2,5-dihydro-1H-pyrrol-1-yl)acetamido)-3-methylbutanamido)-5-ureidopentanamido)benzyl (9-((6R,8R,9S,13aR,15R,16R,16aR,17R)-16,17-difluoro-3,11-dimercapto-3,1 1-dioxido-8-(6-oxo-1,6-dihydro-9H-purin-9-yl)decahydro-6,9-methanofuro[3,2-m][1,3,6,9,12]pentaoxa[2,10]diphosphacyclopentadecin-15-yl)-9H-purin-6-yl)carbamate [Compound 3.13]
- Mouse plasma T ½ [3, 5]: 9.6 days

B1: isotype mAb Libivirumab (anti HBsAg mAb) conjugated with Compound 3.4 (antibody, human IgG1, kappa, V domains shown)
VH: QVQLVESGGGVVRPGRSLRLSCAASGFAFSDYSINWVRQAPGKGLEWVAIISYDGRITYYRDSVKGRFTISRDDSKNTLYLQMNSLRTEDTAVYYCARQYYDFWSGSSVGRNYDGMDVWGLGTTVTVSS
VL: DIVMTQSPLSLSVTPGEPASISCRSSQSLLHRSGNNYLDWYLQKPGHSPQLLIYVGSNRASGVPDRFSGSGSGTEYTLKISRVEAEDVGVYYCMQALQTPRTFGQGTKLEIKR
- HCC1954 IP10 EC50 (Her2): > 1000 nM

B2: isotype mAb Libivirumab (anti HBsAg mAb) conjugated with Compound 3.3 (antibody, human IgG1, kappa, V domains shown)
VH: B1 VH
VL: B1 VL
- HCC1954 IP10 EC50 (Her2): > 1000 nM
- HCC1954 IP10 EC50 (TROP2): > 1000 nM
- TROP2+ 293T EC50 (TROP2): > 1000 nM

B3: isotype mAb Libivirumab (anti HBsAg mAb) conjugated with Compound 3.13 (antibody, human IgG1, kappa, V domains shown)
VH: B1 VH
VL: B1 VL
- HCC1954 IP10 EC50 (TROP2): > 1000 nM
- TROP2+ 293T EC50 (TROP2): > 1000 nM

B4: anti-TROP2 mAb5 (Sacituzumab, heavy chain S375C, light chain V110C) conjugated with Compound 3.3 (antibody, human IgG1, V domains shown)
VH: QVQLQQSGSELKKPGASVKVSCKASGYTFTNYGMNWVKQAPGQGLKWMGWINTYTGEPTYTDDFKGRFAFSLDTSVSTAYLQISSLKADDTAVYFCARGGFGSSYWYFDVWGQGSLVTVSS
VL: DIQLTQSPSSLSASVGDRVSITCKASQDVSIAVAWYQQKPGKAPKLLIYSASYRYTGVPDRFSGSGSGTDFTLTISSLQPEDFAVYYCQQHYITPLTFGAGTKVEIKR
modifications: Compound 3.3 on engineered C110 (EU numbering); Compound 3.3 on engineered C375 (EU numbering); DAR 3.7 for the whole antibody
- HCC1954 IP10 EC50 (TROP2): 8 nM
- TROP2+ 293T EC50 (TROP2): 8 nM

B5: anti-TROP2 mAb5 (Sacituzumab, heavy chain S375C, light chain V110C) conjugated with Compound 3.13 (antibody, human IgG1, V domains shown)
VH: B4 VH
VL: B4 VL
modifications: Compound 3.13 on engineered C110 (EU numbering); Compound 3.13 on engineered C375 (EU numbering); DAR 3.3 for the whole antibody
- HCC1954 IP10 EC50 (TROP2): 2 nM
- TROP2+ 293T EC50 (TROP2): 3 nM

B6: anti-TROP2 mAb5 (Sacituzumab, heavy chain S375C, light chain V110C) conjugated with Compound 3.17 (antibody, human IgG1, V domains shown)
VH: B4 VH
VL: B4 VL
modifications: Compound 3.17 on engineered C110 (EU numbering); Compound 3.17 on engineered C375 (EU numbering); DAR 3.6 for the whole antibody
- HCC1954 IP10 EC50 (TROP2): 8 nM
- TROP2+ 293T EC50 (TROP2): 3 nM

B7: anti-TROP2 mAb5 (Sacituzumab, heavy chain S375C, light chain V110C) conjugated with Compound 3.16 (antibody, human IgG1, V domains shown)
VH: B4 VH
VL: B4 VL
modifications: Compound 3.16 on engineered C110 (EU numbering); Compound 3.16 on engineered C375 (EU numbering); DAR 3.3 for the whole antibody
- HCC1954 IP10 EC50 (TROP2): 5 nM
- TROP2+ 293T EC50 (TROP2): 4 nM

B8: anti-TROP2 mAb5 (Sacituzumab, heavy chain S375C, light chain V110C) conjugated with Compound 3.18 (antibody, human IgG1, V domains shown)
VH: B4 VH
VL: B4 VL
modifications: Compound 3.18 on engineered C110 (EU numbering); Compound 3.18 on engineered C375 (EU numbering); DAR 3.6 for the whole antibody
- HCC1954 IP10 EC50 (TROP2): 6 nM
- TROP2+ 293T EC50 (TROP2): 2 nM
